# Source: article PMC6363440 (The Journal of Cell Biology, 2019)
# B1: GST-TPX2 (natural protein)
# chain: MSQVKSSYSYDAPSDFINFSSLDDEGDTQNIDSWFEEKANLENKLLGKNGTGGLFQGKTPLRKANLQQAIVTPLKPVDNTYYKEAEKENLVEQSIPSNACSSLEVEAAISRKTPAQPQRRSLRLSAQKDLEQKEKHHVKMKAKRCATPVIIDEILPSKKMKVSNNKKKPEEEGSAHQDTAEKNASSPEKAKGRHTVPCMPPAKQKFLKSTEEQELEKSMKMQQEVVEMRKKNEEFKKLALAGIGQPVKKSVSQVTKSVDFHFRTDERIKQHPKNQEEYKEVNFTSELRKHPSSPARVTKGCTIVKPFNLSQGKKRTFDETVSTYVPLAQQVEDFHKRTPNRYHLRSKKDDINLLPSKSSVTKICRDPQTPVLQTKHRARAVTCKSTAELEAEELEKLQQYKFKARELDPRILEGGPILPKKPPVKPPTEPIGFDLEIEKRIQERESKKKTEDEHFEFHSRPCPTKILEDVVGVPEKKVLPITVPKSPAFALKNRIRMPTKEDEEEDEPVVIKAQPVPHYGVPFKPQIPEARTVEICPFSFDSRDKERQLQKEKKIKELQKGEVPKFKALPLPHFDTINLPEKKVKNVTQIEPFCLETDRRGALKAQTWKHQLEEELRQQKEAACFKARPNTVISQEPFVPKKEKKSVAEGLSGSLVQEPFQLATEKRAKERQELEKRMAEVEAQKAQQLEEARLQEEEQKKEELARLRRELVHKANPIRKYQGLEIKSSDQPLTVPVSPKFSTRFHC
# Target: Flag-53BP1 (human, UniProt Q12888 1-1972)
# Assay: pull-down
# Sequence of Flag-53BP1 (Q12888 whole entry): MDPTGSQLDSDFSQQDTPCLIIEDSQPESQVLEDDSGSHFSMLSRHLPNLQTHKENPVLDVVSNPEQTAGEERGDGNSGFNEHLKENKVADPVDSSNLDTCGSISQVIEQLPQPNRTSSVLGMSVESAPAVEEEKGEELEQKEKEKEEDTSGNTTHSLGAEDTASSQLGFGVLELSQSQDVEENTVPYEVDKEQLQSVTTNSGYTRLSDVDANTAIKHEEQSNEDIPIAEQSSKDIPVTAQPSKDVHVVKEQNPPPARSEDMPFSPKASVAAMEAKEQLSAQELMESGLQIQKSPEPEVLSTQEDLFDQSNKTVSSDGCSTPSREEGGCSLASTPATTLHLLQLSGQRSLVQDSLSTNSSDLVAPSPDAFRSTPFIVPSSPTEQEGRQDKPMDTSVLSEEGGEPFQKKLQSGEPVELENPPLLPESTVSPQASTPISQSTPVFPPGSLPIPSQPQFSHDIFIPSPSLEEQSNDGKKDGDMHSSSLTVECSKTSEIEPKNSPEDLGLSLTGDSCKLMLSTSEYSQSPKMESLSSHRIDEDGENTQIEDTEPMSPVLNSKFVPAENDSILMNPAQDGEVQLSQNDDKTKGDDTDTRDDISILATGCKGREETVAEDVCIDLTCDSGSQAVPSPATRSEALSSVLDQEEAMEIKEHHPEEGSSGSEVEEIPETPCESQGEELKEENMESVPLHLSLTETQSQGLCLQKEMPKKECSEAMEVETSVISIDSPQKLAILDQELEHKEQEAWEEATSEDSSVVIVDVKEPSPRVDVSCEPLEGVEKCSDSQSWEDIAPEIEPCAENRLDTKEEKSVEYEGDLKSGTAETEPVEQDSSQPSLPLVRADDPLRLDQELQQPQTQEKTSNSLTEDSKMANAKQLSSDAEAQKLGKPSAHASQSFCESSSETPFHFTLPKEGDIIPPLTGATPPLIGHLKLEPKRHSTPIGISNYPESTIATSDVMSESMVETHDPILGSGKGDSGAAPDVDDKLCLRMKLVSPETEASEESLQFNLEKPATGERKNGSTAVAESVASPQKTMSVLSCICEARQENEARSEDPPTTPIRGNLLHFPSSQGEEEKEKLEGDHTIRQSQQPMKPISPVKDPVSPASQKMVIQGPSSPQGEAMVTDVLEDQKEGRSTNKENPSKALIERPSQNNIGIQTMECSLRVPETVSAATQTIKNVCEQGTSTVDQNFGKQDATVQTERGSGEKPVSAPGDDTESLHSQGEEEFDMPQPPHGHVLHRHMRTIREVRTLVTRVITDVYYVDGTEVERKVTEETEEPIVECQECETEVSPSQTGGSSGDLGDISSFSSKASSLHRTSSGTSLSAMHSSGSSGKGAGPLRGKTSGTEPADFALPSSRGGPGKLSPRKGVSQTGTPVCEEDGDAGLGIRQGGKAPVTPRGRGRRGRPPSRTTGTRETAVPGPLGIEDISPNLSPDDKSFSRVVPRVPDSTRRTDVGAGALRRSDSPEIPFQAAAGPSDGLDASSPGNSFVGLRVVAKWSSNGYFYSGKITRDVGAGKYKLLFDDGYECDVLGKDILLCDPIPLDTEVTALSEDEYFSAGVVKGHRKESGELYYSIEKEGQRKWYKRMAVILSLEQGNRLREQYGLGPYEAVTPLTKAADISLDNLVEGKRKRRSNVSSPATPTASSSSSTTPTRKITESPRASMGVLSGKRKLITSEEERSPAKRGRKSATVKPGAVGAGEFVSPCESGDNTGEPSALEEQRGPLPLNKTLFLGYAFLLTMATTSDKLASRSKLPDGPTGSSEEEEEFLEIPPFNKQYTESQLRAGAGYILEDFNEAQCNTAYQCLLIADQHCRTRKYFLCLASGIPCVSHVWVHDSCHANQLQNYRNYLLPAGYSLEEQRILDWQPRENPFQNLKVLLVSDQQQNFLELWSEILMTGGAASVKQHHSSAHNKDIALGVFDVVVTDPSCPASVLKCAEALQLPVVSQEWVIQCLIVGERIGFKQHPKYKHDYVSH
binder,measurement,value
B1,binding result,binds
